According to the supplement of paper PMC12667976:

B1: library; numbered along this chain (parent)
chain: MATDAALRRLLRLHRTEIAVAVDSAFPLLHALADHDVVPEDKFQETLHLKEKEGCPQAFHALLSWLLTQDSTAILDFWRVLFKDYNLERYGRLQPILDSFPKDVDLSQPRKGRKPPAVPKALVPPPRLPTKRKASEEARAAAPAALTPRGTASPGSQLKAKPPKKPESSAEQQRLPLGNGIQTMSASVQRAVAMSSGDVPGARGAVEGILIQQVFESGGSKKCIQVGGEFYTPSKFEDSGSGKNKARSSSGPKPLVRAKGAQGAAPGGGEARLGQQGSVPAPLALPSDPQLHQKNEDECAVCRDGGELICCDGCPRAFHLACLSPPLREIPSGTWRCSSCLQATVQEVQPRAEEPRPQEPPVETPLPPGLRSAGEEVRGPPGEPLAGMDTTLVYKHLPAPPSAAPLPGLDSSALHPLLCVGPEGQQNLAPGARCGVCGDGTDVLRCTHCAAAFHWRCHFPAGTSRPGTGLRCRSCSGDVTPAPVEGVLAPSPARLAPGPAKDDTASHEPALHRDDLESLLSEHTFDGILQWAIQSMARPAAPFPS

Variants of: B1
Assay: AIRE transcriptional activation functional score (insulin promoter-GFP; nonsense median 0, synonymous median 1) (normalised score); higher = higher AIRE activity (more reporter activation)
Conditions: with insulin promoter-GFP reporter in HEK293
Experimental: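 Deep mutational scan of full-length human AIRE (codon-optimized cDNA, DT-POPCode NNN libraries over three regions) integrated at a Bxb1 landing pad in HEK293 cells carrying an insulin core promoter-GFP reporter at a Flp-In site. Cells were sorted for the top 10% GFP about 14 days after transfection. Variant frequency log-ratios (select vs non-select, TileSeq) were rescaled so that the nonsense median is 0 and the synonymous median is 1, then averaged over biological replicates.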

AIRE transcriptional activation functional score of substitutions, site by site:
S99: H 0.569; I 0.822; W -0.319; L 0.541; P 1.51; Q -0.179; R 0.357; A -0.293; Y -0.311; C 1.07; N 0.889; G 0.382; E 0.0893; F 0.636; M 1.07; K 1.65; D 0.205; V 0.813
P101: Y 0.166; N 0.226; A 0.415; S -0.303; G 0.302; I -0.0207; H 1.17; T -0.239; D 0.335; F -0.111; W -5.52; L 0.222; M 0.0755; V -1.95; R 0.861
K102: F 1.34; R 2.19; S 0.749; T 1.28; N 1.44; Y 1.3; E 1.25; G 0.563; M 0.607; L 0.643; Q 2.65; V 0.889; A -0.872; P -1.25; W 1.77; I 1.56; H -1.63; C 0.948; D 0.758
D98: F 0.239; P 0.632; N 0.841; M 1.55; R 0.621; V 0.341; S 0.163; K -0.443; G -0.489; C 0.078; H 1.3; Y 0.0432; I 0.501; T -0.235; A 0.771; Q 2.07; E 0.0399; W -0.885; L 0.703
L106: E 0.17; C -0.159; F 0.883; D 0.107; A -0.169
I96: W -0.358; Y 0.139; V 1.14
D105: Y 1.72; A 1.52; R 0.481; H 0.701; F 0.419; S -0.0361; K 0.591; L 0.724; N 0.431; V 0.6; G 0.621; T 0.553; E 0.837; C 0.824; Q -0.785
L97: G -0.102; W -1.69; Q -0.412; D 0.828; T -0.118; E -2.05; C 0.164; V 0.394; N -0.0633; P 0.384; R 0.805; A -0.272; M 0.762; S -0.186; I -0.239; Y 2.69; H 2.81; F 1.29
D103: G 1.32; P -0.105; S 1.85; V 0.319; A 0.291; Q 0.412; T 0.146; I 0.368; C 1.14; N 0.59; F 0.826; M -0.761; Y 0.675; H 0.857; L 0.32; K 0.633; W 0.822; E 1.66; R 0.339
V104: Q 1.13; Y 0.986; R 0.389; L 0.894; H -0.483; E 0.823; T 0.284; N -0.244; F 1.15; A -0.013; P 0.45; D -0.387; C 0.343; S -0.0986; I 0.904; K -0.552; G -0.0739
F100: Y -0.017; L 0.191; W 1.58; S 0.172; G -0.223; Q 1.26; N 1.13; K 0.809; P 1.03; I 0.0995; A 0.229; R -0.588; V -0.124; D -0.111; T -2.46; M -0.57; E -0.0797; H 0.644; C 0.447
